For experiment [1], the target named is human survival motor neuron (SMN1) protein (human) (UniProt Q16637). As to the kind of experiment: immunofluorescence, cells transduced with AAV9-SMN1 at MOI 18750, well 1.
The target is the same in experiment [2]. As to the kind of experiment: immunofluorescence, cells transduced with AAV9-SMN1 at MOI 18750, well 2.
Experiment [3] has the same target. As to the kind of experiment: immunofluorescence, cells transduced with AAV9-SMN1 at MOI 37500, well 1.
For experiment [4] the target is unchanged. As to the kind of experiment: immunofluorescence, cells transduced with AAV9-SMN1 at MOI 37500, well 2.
Experiment [5] shares this target. As to the kind of experiment: immunofluorescence, cells transduced with AAV9-SMN1 at MOI 75000, well 1.
The target is the same in experiment [6]. Nature of the experiment: immunofluorescence, cells transduced with AAV9-SMN1 at MOI 75000, well 2.
Experiment [7] shares this target. As to the kind of experiment: immunofluorescence, cells transduced with AAV9-SMN1 at MOI 150000, well 1.
Experiment [8] has the same target. Nature of the experiment: immunofluorescence, cells transduced with AAV9-SMN1 at MOI 150000, well 2.
The target of experiment [9] is methyl cytosine binding protein 2 (MeCP2). As to the kind of experiment: immunofluorescence, cells transduced with AAV9-MECP2 at MOI 18750, well 1 (background level).
Experiment [10] shares this target. Nature of the experiment: immunofluorescence, cells transduced with AAV9-MECP2 at MOI 18750, well 2 (background level).
The target is the same in experiment [11]. Nature of the experiment: immunofluorescence, cells transduced with AAV9-MECP2 at MOI 37500, well 1 (background level).
The target is the same in experiment [12]. As to the kind of experiment: immunofluorescence, cells transduced with AAV9-MECP2 at MOI 37500, well 2 (background level).
Experiment [13] has the same target. Nature of the experiment: immunofluorescence, cells transduced with AAV9-MECP2 at MOI 75000, well 1 (background level).
Experiment [14] has the same target. Nature of the experiment: immunofluorescence, cells transduced with AAV9-MECP2 at MOI 75000, well 2 (background level).
The target is the same in experiment [15]. As to the kind of experiment: immunofluorescence, cells transduced with AAV9-MECP2 at MOI 150000, well 1 (background level).
Experiment [16] shares this target. Nature of the experiment: immunofluorescence, cells transduced with AAV9-MECP2 at MOI 150000, well 2 (background level).
For experiment [17] the target is unchanged. Nature of the experiment: immunofluorescence, cells transduced with AAV9-MECP2 at MOI 300000, well 1 (background level).
Experiment [18] shares this target. As to the kind of experiment: immunofluorescence, cells transduced with AAV9-MECP2 at MOI 300000, well 2 (background level).
Experiment [19] deals with human survival motor neuron (SMN1) protein (human) (UniProt Q16637). Nature of the experiment: immunofluorescence, fixed/permeabilised mTD-NPC-delta7 cells transduced with AAV9-SMN1 at MOI 300000, well 1.
For experiment [20] the target is unchanged. Nature of the experiment: immunofluorescence, fixed/permeabilised mTD-NPC-delta7 cells transduced with AAV9-SMN1 at MOI 300000, well 2.

The record followed here is patent publication US20210255185A1.

Sequence of UniProt Q16637 (Q16637 2-294 limits assumed): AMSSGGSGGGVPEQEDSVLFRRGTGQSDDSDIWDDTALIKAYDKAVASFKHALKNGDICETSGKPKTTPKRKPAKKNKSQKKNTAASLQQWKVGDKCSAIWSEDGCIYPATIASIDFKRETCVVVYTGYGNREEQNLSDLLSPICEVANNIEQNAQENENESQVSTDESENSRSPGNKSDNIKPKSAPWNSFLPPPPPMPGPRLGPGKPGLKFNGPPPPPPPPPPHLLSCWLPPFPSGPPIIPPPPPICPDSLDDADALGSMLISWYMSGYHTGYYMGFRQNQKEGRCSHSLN

On to “mouse monoclonal anti-SMN antibody (Clone 2B1)”, for which the IFI-C (integrated fluorescent intensity per cell) in experiment [1] stood at 1.46e+06; in [2], 1.51e+06; in [3], 1.87e+06; in [4], 1.86e+06; in experiment [5], 2.34e+06; in experiment [6], 2.46e+06. For the same substance, the IFI-C (integrated fluorescent intensity per cell) in experiment [7] turned out to be 2.87e+06; in experiment [8] it was 3.02e+06; in [9] it was 720000; in experiment [10], 759000; in [11], 809000; in [12], 817000. For the same substance, the IFI-C (integrated fluorescent intensity per cell) in experiment [13] came to 837000; in [14], 860000; in [15], 886000; in experiment [16], 839000; in [17], 867000; in [18], 875000. Also, the IFI-C (integrated fluorescent intensity per cell) in experiment [19] stood at 3.43e+06; in experiment [20], 3.27e+06.
